Series [1] deals with cPPR-NRE (synthetic construct). In words: EMSA. Particulars: dU as printed (AUUGUAUAUA); EMSA: 10 mM HEPES pH 8.0, 1 mM EDTA, 50 mM KCl, 2 mM DTT, 0.1 mg/ml BSA, 0.02% Tween-20, room temperature 30 min, 0.83 uM probe, 0-10 uM protein (Kd values …). A general note: Mobility shift assays separate free from complexed probe on a gel.
Series [2] deals with T1, cPPR-Telo1 (synthetic construct, UniProt PDB:5ORQ_1 1-364).
T1 chain: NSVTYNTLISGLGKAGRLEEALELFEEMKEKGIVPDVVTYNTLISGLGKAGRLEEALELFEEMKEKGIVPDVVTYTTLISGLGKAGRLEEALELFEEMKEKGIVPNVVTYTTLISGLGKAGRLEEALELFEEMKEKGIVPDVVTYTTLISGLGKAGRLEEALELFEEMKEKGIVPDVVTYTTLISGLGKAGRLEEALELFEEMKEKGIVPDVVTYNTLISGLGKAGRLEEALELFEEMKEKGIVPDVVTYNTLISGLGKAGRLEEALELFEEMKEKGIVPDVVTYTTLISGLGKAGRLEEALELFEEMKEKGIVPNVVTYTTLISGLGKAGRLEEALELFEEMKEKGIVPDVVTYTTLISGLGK
Kind of series: EMSA; EMSA: 10 mM HEPES pH 8.0, 1 mM EDTA, 50 mM KCl, 2 mM DTT, 0.1 mg/ml BSA, 0.02% Tween-20, room temperature 30 min, 0.83 uM probe, 0-10 uM protein (Kd values only in Supplementary Fig. 2 graphic). Conditions: protein: recombinant, tags: GST-His (pETM30), label: 5'-fluorescein via hexaethyleneglycol spacer.

Series [3] has as its target T2, cPPR-Telo1 (tag removed) (synthetic construct, UniProt PDB:5ORQ_1 1-364).
T2 chain: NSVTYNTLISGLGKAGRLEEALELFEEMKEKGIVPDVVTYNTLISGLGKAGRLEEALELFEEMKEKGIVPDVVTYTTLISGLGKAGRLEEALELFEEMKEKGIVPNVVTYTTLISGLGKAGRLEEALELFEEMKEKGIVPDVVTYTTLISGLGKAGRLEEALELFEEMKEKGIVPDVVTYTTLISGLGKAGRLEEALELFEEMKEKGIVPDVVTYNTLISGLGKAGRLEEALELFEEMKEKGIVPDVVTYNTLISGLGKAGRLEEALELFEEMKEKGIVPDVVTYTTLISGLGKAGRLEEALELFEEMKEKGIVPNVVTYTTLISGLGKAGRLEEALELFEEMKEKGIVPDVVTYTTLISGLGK
Kind of series: X-ray crystallography (1.95 A); pH 4.6, 20 mM CaCl2; EMSA: 10 mM HEPES pH 8.0, 1 mM EDTA, 50 mM KCl, 2 mM DTT, 0.1 mg/ml BSA, 0.02% Tween-20, room temperature 30 min, 0.83 uM probe, 0-10 uM protein (Kd values only in Supplementary Fig. 2 graphic). Conditions: protein: recombinant; tags: none (GST-His removed by TEV); single strand.

AUUGUAUAUA [NRE ssDNA] registered a binding signal (fold lower affinity than NRE RNA) in series [1] of 3.

B1: Telo-ssDNA (ssDNA)
DNA: GGTTAGGGTTAG
Take B1: in series [2] (single strand), the binding result was “binds”.

B2: Primer GG-a (Telo-ssDNA-GG) (structured_DNA)
DNA: GGTTAGGGTTAGGGTTAGGG
Turning to B2, the binding result in series [2] (potential intramolecular G4) was “binds”.

B3: cPPR-Telo1 target ssDNA (ssDNA)
DNA: TTAGGGTTAG
For the molecule B3, the binding result in series [3] is given as “binds”.

B4: Primer a (ssDNA)
DNA: TTAGGGTTAGGGTTAGGG
As to B4, the binding result in series [2] (single strand, cannot form G4) was “binds”.

(Values after article PMC5992170, “Modular ssDNA binding and inhibition of telomerase activity by designer PPR proteins”.)
